Data set [1] concerns the target Grb2 SH2 (UniProt P62993). The experiment in a line: SH2 binding enrichment of the phosphorylated peptide, bacterial display (enrichment ratio); higher = better substrate or ligand; peptides without Tyr show the background.
Data set [2] has as its target c-Src SH2. Described as above.
In data set [3] the target is SHP2-C SH2. Described as above.
In data set [4] the test system is c-Src. Put plainly: phosphorylation enrichment, bacterial display (enrichment ratio); higher = better substrate or ligand; peptides without Tyr show the background.
The target in data set [5] is MERTK (UniProt Q12866). The data set is described as above.
MERTK, sequence (Q12866 whole entry, looked up): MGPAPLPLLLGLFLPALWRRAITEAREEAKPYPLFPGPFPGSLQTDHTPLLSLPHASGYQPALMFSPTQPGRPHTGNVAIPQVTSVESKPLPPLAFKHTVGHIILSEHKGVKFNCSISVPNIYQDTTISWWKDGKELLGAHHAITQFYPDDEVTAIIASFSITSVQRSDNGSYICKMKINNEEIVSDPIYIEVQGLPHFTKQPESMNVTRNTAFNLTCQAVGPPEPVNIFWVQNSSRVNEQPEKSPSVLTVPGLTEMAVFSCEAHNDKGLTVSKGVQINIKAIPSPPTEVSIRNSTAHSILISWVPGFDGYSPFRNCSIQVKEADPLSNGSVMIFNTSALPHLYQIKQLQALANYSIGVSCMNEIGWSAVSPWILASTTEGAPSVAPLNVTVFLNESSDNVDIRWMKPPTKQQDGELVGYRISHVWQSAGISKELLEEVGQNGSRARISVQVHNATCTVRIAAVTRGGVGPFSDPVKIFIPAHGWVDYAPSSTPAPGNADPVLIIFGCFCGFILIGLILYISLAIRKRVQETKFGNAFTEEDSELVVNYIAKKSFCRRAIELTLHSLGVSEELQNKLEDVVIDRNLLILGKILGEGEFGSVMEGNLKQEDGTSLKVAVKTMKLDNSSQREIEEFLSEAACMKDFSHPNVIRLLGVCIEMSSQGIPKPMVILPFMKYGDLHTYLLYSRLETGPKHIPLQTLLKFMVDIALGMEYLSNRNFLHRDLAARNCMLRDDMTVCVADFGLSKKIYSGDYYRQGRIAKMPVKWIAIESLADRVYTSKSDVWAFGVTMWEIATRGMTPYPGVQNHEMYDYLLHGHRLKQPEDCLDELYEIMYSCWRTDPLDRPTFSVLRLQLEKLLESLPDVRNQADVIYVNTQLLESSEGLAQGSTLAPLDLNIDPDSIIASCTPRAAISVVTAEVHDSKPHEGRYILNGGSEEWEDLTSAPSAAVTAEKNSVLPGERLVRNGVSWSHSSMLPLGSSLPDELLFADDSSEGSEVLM
In data set [6] the target is Jak2 (UniProt O60674). The description is as above.
Jak2, sequence (O60674 whole entry, looked up): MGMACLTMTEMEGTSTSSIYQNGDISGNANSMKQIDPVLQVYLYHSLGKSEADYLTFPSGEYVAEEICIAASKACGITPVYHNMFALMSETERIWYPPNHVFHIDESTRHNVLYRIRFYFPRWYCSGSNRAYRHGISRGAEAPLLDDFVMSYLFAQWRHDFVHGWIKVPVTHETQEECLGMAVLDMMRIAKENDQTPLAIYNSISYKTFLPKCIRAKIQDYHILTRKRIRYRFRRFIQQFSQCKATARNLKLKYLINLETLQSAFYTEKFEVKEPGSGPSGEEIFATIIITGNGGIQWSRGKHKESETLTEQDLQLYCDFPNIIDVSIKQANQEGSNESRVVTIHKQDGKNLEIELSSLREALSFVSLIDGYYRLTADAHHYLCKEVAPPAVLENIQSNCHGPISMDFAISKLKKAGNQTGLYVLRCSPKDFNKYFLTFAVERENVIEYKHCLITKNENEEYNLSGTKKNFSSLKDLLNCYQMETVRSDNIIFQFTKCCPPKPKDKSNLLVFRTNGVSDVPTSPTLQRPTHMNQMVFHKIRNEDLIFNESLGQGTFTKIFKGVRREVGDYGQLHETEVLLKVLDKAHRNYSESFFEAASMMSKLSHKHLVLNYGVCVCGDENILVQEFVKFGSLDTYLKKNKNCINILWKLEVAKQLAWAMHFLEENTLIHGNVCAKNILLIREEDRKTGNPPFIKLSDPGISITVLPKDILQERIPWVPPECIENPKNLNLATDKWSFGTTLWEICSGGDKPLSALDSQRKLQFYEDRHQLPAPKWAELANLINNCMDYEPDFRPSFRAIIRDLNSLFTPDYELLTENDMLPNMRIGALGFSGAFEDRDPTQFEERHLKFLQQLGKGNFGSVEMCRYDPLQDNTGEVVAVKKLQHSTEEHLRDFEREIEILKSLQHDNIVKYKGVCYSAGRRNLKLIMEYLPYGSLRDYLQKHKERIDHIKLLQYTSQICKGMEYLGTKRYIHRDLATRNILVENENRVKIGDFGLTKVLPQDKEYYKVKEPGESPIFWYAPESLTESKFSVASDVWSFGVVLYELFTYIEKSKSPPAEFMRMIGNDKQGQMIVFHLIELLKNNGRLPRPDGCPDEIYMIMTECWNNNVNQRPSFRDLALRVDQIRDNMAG
Data set [7] has as its target Fes (UniProt P07332). The data set is described as above.
Data set [8] concerns c-Abl (mouse). Described as above.
For data set [9], the target named is Fyn (UniProt P06241). The data set is described as above.
Fyn, sequence (P06241 whole entry, looked up): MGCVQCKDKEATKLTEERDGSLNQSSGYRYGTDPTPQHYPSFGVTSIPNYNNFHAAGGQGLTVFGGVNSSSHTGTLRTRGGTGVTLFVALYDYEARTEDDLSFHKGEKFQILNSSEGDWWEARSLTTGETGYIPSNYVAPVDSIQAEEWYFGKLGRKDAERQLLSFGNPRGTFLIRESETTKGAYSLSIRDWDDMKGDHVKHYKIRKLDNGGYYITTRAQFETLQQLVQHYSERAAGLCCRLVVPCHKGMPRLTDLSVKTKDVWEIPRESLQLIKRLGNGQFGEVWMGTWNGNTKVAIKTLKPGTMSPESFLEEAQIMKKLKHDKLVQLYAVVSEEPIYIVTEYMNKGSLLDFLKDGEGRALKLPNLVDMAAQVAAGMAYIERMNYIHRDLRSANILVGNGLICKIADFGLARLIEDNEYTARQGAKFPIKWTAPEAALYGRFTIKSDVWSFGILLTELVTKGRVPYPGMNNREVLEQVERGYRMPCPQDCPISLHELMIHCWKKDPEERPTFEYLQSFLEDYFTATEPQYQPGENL
Data set [10] deals with Hck (UniProt P08631). Described as above.
Hck, sequence (P08631 whole entry, looked up): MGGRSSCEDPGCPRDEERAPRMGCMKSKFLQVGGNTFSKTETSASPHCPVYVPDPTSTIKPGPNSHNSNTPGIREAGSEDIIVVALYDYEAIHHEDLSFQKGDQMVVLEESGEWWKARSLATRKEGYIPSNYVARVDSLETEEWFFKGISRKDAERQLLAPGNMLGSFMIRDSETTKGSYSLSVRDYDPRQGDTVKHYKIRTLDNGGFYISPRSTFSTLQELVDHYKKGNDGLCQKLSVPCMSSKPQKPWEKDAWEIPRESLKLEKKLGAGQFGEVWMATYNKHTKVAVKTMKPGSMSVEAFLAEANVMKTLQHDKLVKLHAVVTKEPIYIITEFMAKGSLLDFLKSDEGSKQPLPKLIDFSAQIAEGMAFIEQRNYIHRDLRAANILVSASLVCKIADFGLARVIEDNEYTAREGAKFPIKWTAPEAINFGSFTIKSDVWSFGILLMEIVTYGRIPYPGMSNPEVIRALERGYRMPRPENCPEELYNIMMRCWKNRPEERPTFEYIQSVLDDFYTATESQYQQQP
For data set [11], the target named is EPHB2 (UniProt P29323). Described as above.
The target of data set [12] is EPHB1 (UniProt P54762). The description is as above.
Data set [13] addresses FGFR1 (UniProt P11362). The description is as above.
Data set [14] addresses FGFR3 (UniProt P22607). The description is as above.
In data set [15] the test system is Fer (mouse). Described as above.
The subject of data set [16] is AncSZ. Described as above.
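For SH2 binding enrichment of the phosphorylated peptide, bacterial display in this document: peptide library displayed on the E. coli surface as eCPX fusions, selected cells deep-sequenced, score is each peptide's frequency after selection divided by its frequency in the input.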
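For phosphorylation enrichment, bacterial display in this document: 11-residue human phosphosite peptides and single-mutation variants displayed on the E. coli surface, counted by deep sequencing, each peptide's frequency after selection divided by its frequency in the unselected input library; frequency after pTyr selection over input frequency; kinase dosed for 20-30% of maximal phosphorylation in three min.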

FGFR1, sequence (P11362 whole entry, looked up): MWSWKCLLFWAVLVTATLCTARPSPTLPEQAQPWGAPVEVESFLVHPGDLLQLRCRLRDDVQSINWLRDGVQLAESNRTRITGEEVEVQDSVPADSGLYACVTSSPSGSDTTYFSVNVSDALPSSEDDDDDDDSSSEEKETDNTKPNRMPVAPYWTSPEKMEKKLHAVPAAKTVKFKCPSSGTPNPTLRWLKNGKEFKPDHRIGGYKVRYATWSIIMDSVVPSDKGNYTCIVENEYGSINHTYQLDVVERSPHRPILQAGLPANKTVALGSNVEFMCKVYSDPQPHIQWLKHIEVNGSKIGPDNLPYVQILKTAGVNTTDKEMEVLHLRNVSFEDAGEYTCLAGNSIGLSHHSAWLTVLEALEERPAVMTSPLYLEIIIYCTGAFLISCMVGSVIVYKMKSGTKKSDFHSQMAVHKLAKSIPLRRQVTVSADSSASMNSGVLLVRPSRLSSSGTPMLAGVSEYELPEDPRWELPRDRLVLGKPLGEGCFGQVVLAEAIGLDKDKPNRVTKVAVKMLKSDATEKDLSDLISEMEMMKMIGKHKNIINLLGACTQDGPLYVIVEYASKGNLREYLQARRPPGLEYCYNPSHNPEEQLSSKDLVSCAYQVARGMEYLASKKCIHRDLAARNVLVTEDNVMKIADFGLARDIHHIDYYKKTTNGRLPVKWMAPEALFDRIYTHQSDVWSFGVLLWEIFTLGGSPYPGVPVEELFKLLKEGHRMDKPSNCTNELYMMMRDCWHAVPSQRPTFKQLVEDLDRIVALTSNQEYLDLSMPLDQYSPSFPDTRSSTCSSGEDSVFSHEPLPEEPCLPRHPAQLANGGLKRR
Grb2 SH2, sequence (P62993 whole entry, looked up): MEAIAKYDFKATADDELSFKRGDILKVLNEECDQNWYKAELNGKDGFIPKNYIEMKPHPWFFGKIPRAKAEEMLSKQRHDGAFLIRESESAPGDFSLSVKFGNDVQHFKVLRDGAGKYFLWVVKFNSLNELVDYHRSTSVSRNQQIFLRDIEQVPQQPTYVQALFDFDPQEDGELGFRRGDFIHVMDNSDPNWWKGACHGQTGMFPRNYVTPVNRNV
Fes, sequence (P07332 whole entry, looked up): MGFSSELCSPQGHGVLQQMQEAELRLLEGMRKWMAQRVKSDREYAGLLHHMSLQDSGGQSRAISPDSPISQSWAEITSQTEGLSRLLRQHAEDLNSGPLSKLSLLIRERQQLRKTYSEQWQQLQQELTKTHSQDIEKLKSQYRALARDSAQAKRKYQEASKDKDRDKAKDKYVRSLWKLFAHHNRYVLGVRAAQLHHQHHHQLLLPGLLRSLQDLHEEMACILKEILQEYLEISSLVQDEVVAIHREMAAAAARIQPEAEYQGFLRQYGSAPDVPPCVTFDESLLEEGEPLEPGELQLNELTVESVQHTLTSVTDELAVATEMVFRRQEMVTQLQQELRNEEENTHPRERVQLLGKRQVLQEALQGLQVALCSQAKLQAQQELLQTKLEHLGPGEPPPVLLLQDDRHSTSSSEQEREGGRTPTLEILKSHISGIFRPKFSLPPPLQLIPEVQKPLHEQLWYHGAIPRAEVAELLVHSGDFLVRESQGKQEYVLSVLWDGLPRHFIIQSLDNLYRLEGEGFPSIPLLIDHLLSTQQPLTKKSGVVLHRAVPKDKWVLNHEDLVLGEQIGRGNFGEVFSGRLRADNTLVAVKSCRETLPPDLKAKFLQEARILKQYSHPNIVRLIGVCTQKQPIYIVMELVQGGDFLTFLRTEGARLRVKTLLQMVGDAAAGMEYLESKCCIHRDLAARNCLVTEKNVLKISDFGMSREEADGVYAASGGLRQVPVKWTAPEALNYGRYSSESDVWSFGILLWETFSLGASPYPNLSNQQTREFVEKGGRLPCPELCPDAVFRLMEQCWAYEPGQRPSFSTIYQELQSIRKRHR

As for PPVVNYEEDAR [FER_Y402], the SH2 binding enrichment in data set [1] was determined as 0.745; in [2] it was 0.806; in data set [3], 1.01. Moreover, the phosphorylation enrichment in data set [4] was determined as 0.534; in data set [5], 0.856; in data set [6], 1.4; in data set [7], 1.86; in data set [8], 0.824; in data set [9] it was 0.896. Moreover, the phosphorylation enrichment is 0.64 in [10]; 0.892 in data set [11]; 0.957 in data set [12]; 0.569 in data set [13]; 0.968 in [14]; 0.585 in data set [15]. In data set [16], the phosphorylation enrichment amounted to 1.26.
Turning to PRIKTYMRPSP [TDP1_Y497_H493R], the SH2 binding enrichment in data set [1] worked out at 1.04; in [2] it was 0.842; in data set [3] it was 0.948. Besides, the phosphorylation enrichment was found to be 0.474 in data set [4]; 0.44 in [5]; 0.49 in [6]; 0.65 in [7]; 0.425 in [8]; 0.366 in data set [9]. Besides, the phosphorylation enrichment in data set [10] came to 0.36; in data set [11] it was 0.465; in data set [12] it was 0.317; in [13] it was 0.451; in [14], 0.522; in data set [15], 0.378. The phosphorylation enrichment in data set [16] came out at 0.493.
In the case of PSARTYCFKQE [KLHDC9_Y175_YF], the SH2 binding enrichment in data set [1] was found to be 0.944; in data set [2], 0.632; in data set [3], 0.622. For the same sequence, the phosphorylation enrichment was 0.494 in data set [4]; 0.429 in [5]; 0.624 in [6]; 0.802 in data set [7]; 0.491 in data set [8]; 0.622 in data set [9]. Moreover, the phosphorylation enrichment in [10] was determined as 0.413; in [11], 0.595; in [12], 0.386; in data set [13], 0.469; in data set [14] it was 0.571; in data set [15], 0.415. Further, the phosphorylation enrichment in data set [16] was 0.743.
Take PSGPAYRGAVP [ASAH1_Y43_T42A]: the SH2 binding enrichment in [1] worked out at 0.72; in data set [2], 0.49; in [3], 0.455. Further, the phosphorylation enrichment in data set [4] was determined as 0.506; in data set [5] it was 0.476; in data set [6], 0.736; in [7], 0.759; in [8] it was 0.758; in data set [9], 0.539. Also, the phosphorylation enrichment in data set [10] was determined as 0.459; in data set [11] it was 0.431; in data set [12] it was 0.74; in data set [13] it was 0.809; in data set [14] it was 0.423; in data set [15] it was 0.533. Further, the phosphorylation enrichment in data set [16] is 0.664.
For PSPMPYAFCQM [FOXL2_Y215_S217F], the SH2 binding enrichment in data set [1] was determined as 0.64; in data set [2], 1.7; in [3], 0.774. Also, the phosphorylation enrichment in [4] was 1.99; in data set [5], 1.41; in data set [6], 1.75; in [7], 2.17; in [8], 1.44; in [9], 0.706. The phosphorylation enrichment in [10] came out at 0.934; in data set [11], 1.28; in data set [12], 1.3; in [13], 2.61; in [14] it was 2.31; in data set [15], 9.08. In addition, the phosphorylation enrichment in data set [16] is 1.87.
PSRKDYETYQS [CTNND2_Y1154_P1159S]: the SH2 binding enrichment was 0.976 in data set [1], 0.746 in [2] and 0.899 in [3]. Moreover, the phosphorylation enrichment in data set [4] came to 0.948; in data set [5] it was 0.474; in data set [6], 0.94; in data set [7], 1.17; in data set [8], 0.729; in data set [9], 0.543. The phosphorylation enrichment in [10] was 0.764; in data set [11], 1.03; in data set [12] it was 0.827; in [13] it was 0.539; in data set [14], 0.704; in [15], 0.55. Besides, the phosphorylation enrichment in [16] is 0.875.
Regarding PTDCVYVMPTV [MYO7A_Y1668_S1666C], the SH2 binding enrichment in [1] is 1.01; in data set [2], 0.642; in [3], 0.716. In addition, the phosphorylation enrichment is 4.95 in [4]; 6.63 in [5]; 1.1 in data set [6]; 1.06 in data set [7]; 7.37 in data set [8]; 8.41 in data set [9]. In addition, the phosphorylation enrichment worked out at 4.49 in data set [10]; 2.4 in [11]; 3.34 in data set [12]; 5 in [13]; 3.92 in data set [14]; 1.08 in data set [15]. Also, in [16], the phosphorylation enrichment stood at 5.31.
As to PTDSVYVMPTV [MYO7A_Y1668], the SH2 binding enrichment came out at 0.911 in data set [1], 0.429 in data set [2] and 0.683 in data set [3]. The phosphorylation enrichment in data set [4] was found to be 4.43; in data set [5], 8.35; in [6], 0.827; in data set [7] it was 0.926; in data set [8] it was 3.01; in data set [9] it was 8.58. For the same sequence, the phosphorylation enrichment in data set [10] was found to be 3.43; in data set [11], 0.708; in data set [12], 1.15; in data set [13], 2.32; in [14] it was 1.68; in data set [15], 0.77. In addition, the phosphorylation enrichment in data set [16] was 2.78.

(Values after the supplement of paper PMC10065799, “High-throughput profiling of sequence recognition by tyrosine kinases and SH2 domains using bacterial peptide display” (eLife, 2023).)
